In article PMC10231232, “Expanding the Physiological Role of Aryl-Alcohol Flavooxidases as Quinone Reductases” (Applied and Environmental Microbiology, 2023):
Like-named read-outs stand apart in the source and are kept apart here. Values belong to the molecule of their own block, whether it stands above or below them.

Legend:
PoAAO [1] = test system: T1, PoAAO; assay: steady-state kinetics, absorbance of aldehyde formed; type: biochemical, Pleurotus ostreatus; details: apparent, air-saturated (0.256 mM O2), 50 mM NaPi pH 6.0, 25°C
T1 construct: gene AAO; 60,903 Da
Text: steady-state kinetics, absorbance of aldehyde formed on PoAAO | The three enzymes oxidized the whole spectrum of alcohols although with different catalytic efficiencies.

PoAAO [2] = test system: T2, PoAAO; details: read-out: Km(acceptor); electron acceptor; p-methoxybenzyl alcohol as co-substrate (varied), ping-pong fit, anaerobic, 50 mM NaPi pH 6.0, 25°C
T2 construct: gene AAO

PeAAO = molecular target: T3, PeAAO (Pleurotus eryngii, UniProt O94219); assay: bi-substrate steady-state kinetics, anaerobic, BQ reduction at […] nm; type: biochemical; details: electron acceptor, p-methoxybenzyl alcohol as co-substrate (varied), ping-pong fit, 50 mM NaPi pH 6.0, 25°C
T3 construct: gene aao; 61,847 Da
T3 sequence (O94219 28-593): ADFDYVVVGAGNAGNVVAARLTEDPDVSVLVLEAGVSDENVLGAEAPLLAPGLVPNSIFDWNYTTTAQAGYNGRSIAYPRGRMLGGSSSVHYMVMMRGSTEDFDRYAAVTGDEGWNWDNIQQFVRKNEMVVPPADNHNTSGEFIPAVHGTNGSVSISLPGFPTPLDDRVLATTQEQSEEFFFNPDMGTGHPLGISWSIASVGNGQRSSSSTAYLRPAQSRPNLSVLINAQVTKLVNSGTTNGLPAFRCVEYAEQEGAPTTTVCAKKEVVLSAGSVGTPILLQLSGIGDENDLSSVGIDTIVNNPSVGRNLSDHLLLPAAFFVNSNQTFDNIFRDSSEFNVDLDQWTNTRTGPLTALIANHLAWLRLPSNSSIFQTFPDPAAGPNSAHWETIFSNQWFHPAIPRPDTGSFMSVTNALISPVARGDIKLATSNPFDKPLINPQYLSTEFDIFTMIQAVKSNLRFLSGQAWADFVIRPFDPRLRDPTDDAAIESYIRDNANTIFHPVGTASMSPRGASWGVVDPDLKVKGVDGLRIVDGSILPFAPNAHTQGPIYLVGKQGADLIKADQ

BaAAO = molecular target: T4, BaAAO (Bjerkandera adusta, UniProt A0ABF7PQ87); assay: as above; type: biochemical; details: electron acceptor, p-methoxybenzyl alcohol as co-substrate (varied), ping-pong fit, 50 mM NaPi pH 6.0, 25°C
T4 construct: 62,610 Da; one cysteine
T4 sequence (A0ABF7PQ87 1-580): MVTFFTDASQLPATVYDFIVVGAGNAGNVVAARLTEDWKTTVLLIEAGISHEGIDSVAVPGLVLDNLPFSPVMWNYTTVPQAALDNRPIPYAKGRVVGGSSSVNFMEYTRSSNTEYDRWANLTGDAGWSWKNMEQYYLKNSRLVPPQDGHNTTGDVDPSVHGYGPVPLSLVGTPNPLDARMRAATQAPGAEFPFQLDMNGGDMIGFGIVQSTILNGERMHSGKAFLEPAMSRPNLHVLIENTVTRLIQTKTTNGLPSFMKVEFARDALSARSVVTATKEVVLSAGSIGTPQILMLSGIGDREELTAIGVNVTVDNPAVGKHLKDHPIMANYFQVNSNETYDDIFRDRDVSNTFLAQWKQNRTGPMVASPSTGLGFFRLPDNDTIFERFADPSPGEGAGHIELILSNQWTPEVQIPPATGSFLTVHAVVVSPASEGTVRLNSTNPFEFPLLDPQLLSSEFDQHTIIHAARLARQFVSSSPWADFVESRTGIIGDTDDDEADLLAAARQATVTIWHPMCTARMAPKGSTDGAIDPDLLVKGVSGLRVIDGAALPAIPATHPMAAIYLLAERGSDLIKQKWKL

[3] = substrate: COc1cc(CO)ccc1O; assay: steady-state kinetics, absorbance of aldehyde formed; type: biochemical, Bjerkandera adusta; details: apparent, air-saturated (0.256 mM O2), 50 mM NaPi pH 6.0, 25°C
Text: (§1) steady-state kinetics, absorbance of aldehyde formed on BaAAO | The three enzymes oxidized the whole spectrum of alcohols although with different catalytic efficiencies.

[4] = substrate: COc1ccc(CO)cc1Cl; assay: as above; type: biochemical, Bjerkandera adusta; details: apparent, air-saturated (0.256 mM O2), 50 mM NaPi pH 6.0, 25°C
Text: as §1

[5] = substrate: OCc1cccc(Cl)c1; assay: as above; type: biochemical, Bjerkandera adusta; details: apparent, air-saturated (0.256 mM O2), 50 mM NaPi pH 6.0, 25°C
Text: as §1

[6] = substrate: CC=CC=CCO; assay: as above; type: biochemical, Bjerkandera adusta; details: apparent, air-saturated (0.256 mM O2), 50 mM NaPi pH 6.0, 25°C
Text: as §1

[7] = substrate: OCc1cccc(Cl)c1; assay: purified protein, by the assay type; design: steady-state kinetics, spectrophotometric alcohol oxidation to aldehyde, air-saturated 50 mM NaPi pH 6.0, 25 C; details: pH 6.0
Experimental: Steady-state kinetic parameters were measured spectrophotometrically by monitoring the oxidation of the different alcohols to the corresponding aldehydes—Δε285, 16,950 M^−1 cm^−1 for [compound left out]; Δε240, 5,923 M^−1 cm^−1 for 3-chloro-benzyl alcohol; Δε309, 8,332 M^−1 cm^−1 for vanillyl alcohol; Δε307, 7,383 M^−1 cm^−1 for [compound left out]; Δε280, 30,140 M^−1 cm^−1 for 2,4-hexadien-1-ol from ([15]); Δε295, 15,000 M^−1 cm^−1 for 3-chloro-p-mehxoybenzyl alcohol from ([38]); and Δε310, 9,300 M^−1 cm^−1 for [compound left out] from Guillén et al. ([59])—in air-saturated (0.256 mM O2 concentration) 50 mM NaPi, pH 6.0, at 25°C. Steady-state kinetic analyses and statistical fits were performed using the SigmaPlot program. Apparent kinetic parameters in atmospheric oxygen were determined by fitting initial reaction rates (v0) at different alcohol concentrations to the Michaelis-Menten equation (equation 1). (1) v0/e = kcat[A]/Km + [A] The steady-state curves and resulting kinetic parameters for oxidation of different alcohols under atmospheric conditions with O2 as an electron acceptor were compared for PoAAO, BaAAO, and PeAAO (Fig. S4 and Table S1). The three enzymes oxidized the whole spectrum of alcohols although with different catalytic efficiencies.

[8] = substrate: COc1ccc(CO)cc1Cl; assay: steady-state kinetics, absorbance of aldehyde formed; type: biochemical, Pleurotus eryngii; details: apparent, air-saturated (0.256 mM O2), 50 mM NaPi pH 6.0, 25°C
Text: (§2) steady-state kinetics, absorbance of aldehyde formed on PeAAO | The three enzymes oxidized the whole spectrum of alcohols although with different catalytic efficiencies.

[9] = substrate: CC=CC=CCO; assay: as above; type: biochemical, Pleurotus eryngii; details: apparent, air-saturated (0.256 mM O2), 50 mM NaPi pH 6.0, 25°C
Text: as §2

- Km (PoAAO [1]): 80 ± 6 µM
Molecule: OCc1cccc(Cl)c1 [3-chlorobenzyl alcohol]

Molecule: O=C1C=CC(=O)C=C1 [BQ, p-benzoquinone]
- Km (PoAAO [2]): 33 ± 4 µM
- Km (PeAAO): 48 ± 6 µM
- Km (BaAAO): 70 ± 9 µM

Molecule: COc1ccc(CO)cc1O [isovanillyl alcohol]
- Km (PoAAO [1]): 713 ± 44 µM

- Km (PoAAO [1]): 86 ± 4 µM
Molecule: CC=CC=CCO [2,4-hexadien-1-ol]

- Km (PoAAO [1]): 9 ± 1 µM
Molecule: COc1ccc(CO)cc1Cl [3-chloro-p-methoxybenzyl alcohol]

Molecule: COc1ccc(CO)cc1OC [veratryl alcohol]
- Km (PoAAO [1]): 212 ± 11 µM

B1: BaAAO (Bjerkandera adusta) (protein)
chain: T4 sequence (A0ABF7PQ87 1-580)
notes: 62,610 Da; one cysteine
- Km [3]: 1960 ± 100 µM
- kcat [3]: 38 ± 1 s⁻¹
- Km [4]: 49 ± 4 µM
- kcat [4]: 37 ± 1 s⁻¹
- Km [5]: 37 ± 5 µM
- kcat [5]: 13 ± 1 s⁻¹
- Km [6]: 854 ± 32 µM
- kcat [6]: 42 ± 1 s⁻¹

B2: PeAAO (Pleurotus eryngii) (protein)
chain: T3 sequence (O94219 28-593)
notes: 61,847 Da
- Km [7]: 107 ± 2 µM
- kcat [7]: 22 ± 1 s⁻¹
- kcat/Km [7]: 203 ± 3 mM^-1s^- //
- Km [8]: 9 ± 1 µM
- kcat [8]: 34 ± 1 s⁻¹
- Km [9]: 94 ± 4 µM
- kcat [9]: 119 ± 1 s⁻¹
